Measurements taken from the supplement of paper PMC9112550, “Optimization of the antimicrobial peptide Bac7 by deep mutational scanning” (BMC Biology, 2022).

What follows are sequences tested on Escherichia coli TOP10 (assay: shrunken log2 fold change of peptide-encoding DNA abundance (4.5 h post-induction vs induction); higher = less antimicrobial activity (less host growth inhibition)). Details: time post-induction: 4.5 h; library: site-saturation at positions 5, 18, 19, 20.
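Further: peptides expressed intracellularly from a pBAD plasmid library in pooled LB shake-flask culture, induced with 0.3% L-arabinose, DNA abundance read by NGS, three biological replicates, DESeq2 with apeglm shrinkage.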

Row | Sequence | shrunken log2 fold change
1 | RRIRCRPPRLPRPRPRPQMEPRP | 0.04
2 | RRIRCRPPRLPRPRPRPQMVPRP | 0.151
3 | RRIRCRPPRLPRPRPRPQNCPRP | 0.137
4 | RRIRCRPPRLPRPRPRPQNGPRP | 0.0924
5 | RRIRCRPPRLPRPRPRPQNIPRP | -0.237
6 | RRIRCRPPRLPRPRPRPQRRPRP | -0.023
7 | RRIRCRPPRLPRPRPRPQVRPRP | -0.236
8 | RRIRCRPPRLPRPRPRPQVWPRP | -0.0474
9 | RRIRCRPPRLPRPRPRPQWAPRP | 0.0425
10 | RRIRCRPPRLPRPRPRPQYAPRP | -0.231
11 | RRIRCRPPRLPRPRPRPQYSPRP | -0.273
12 | RRIRCRPPRLPRPRPRPRDQPRP | 0.278
13 | RRIRCRPPRLPRPRPRPRDWPRP | 0.591
14 | RRIRCRPPRLPRPRPRPRFFPRP | 0.191
15 | RRIRCRPPRLPRPRPRPRGHPRP | 0.071
16 | RRIRCRPPRLPRPRPRPRHEPRP | -0.117
17 | RRIRCRPPRLPRPRPRPRHSPRP | -0.102
18 | RRIRCRPPRLPRPRPRPRHWPRP | 0.261
19 | RRIRCRPPRLPRPRPRPRISPRP | -0.248
20 | RRIRCRPPRLPRPRPRPRKLPRP | 0.0902
21 | RRIRCRPPRLPRPRPRPRKRPRP | 0.456
22 | RRIRCRPPRLPRPRPRPRLCPRP | 0.427
23 | RRIRCRPPRLPRPRPRPRPLPRP | 0.319
24 | RRIRCRPPRLPRPRPRPRPMPRP | 0.443
25 | RRIRCRPPRLPRPRPRPRPQPRP | 0.776

Row | Sequence | shrunken log2 fold change
26 | RRIRCRPPRLPRPRPRPRQHPRP | -0.0138
27 | RRIRCRPPRLPRPRPRPRRIPRP | -0.246
28 | RRIRCRPPRLPRPRPRPRTDPRP | 0.0321
29 | RRIRCRPPRLPRPRPRPRTYPRP | -0.447
30 | RRIRCRPPRLPRPRPRPRVSPRP | 0.064
31 | RRIRCRPPRLPRPRPRPRWPPRP | 0.661
32 | RRIRCRPPRLPRPRPRPRWSPRP | 0.422
33 | RRIRCRPPRLPRPRPRPRWYPRP | -0.134
34 | RRIRCRPPRLPRPRPRPRYHPRP | -0.685
35 | RRIRCRPPRLPRPRPRPRYMPRP | -0.402
36 | RRIRCRPPRLPRPRPRPSEAPRP | 0.125
37 | RRIRCRPPRLPRPRPRPSGGPRP | -0.0862
38 | RRIRCRPPRLPRPRPRPSHLPRP | -0.53
39 | RRIRCRPPRLPRPRPRPSHQPRP | -1.04
40 | RRIRCRPPRLPRPRPRPSKKPRP | -0.0938
41 | RRIRCRPPRLPRPRPRPSKMPRP | -0.492
42 | RRIRCRPPRLPRPRPRPSLDPRP | -0.203
43 | RRIRCRPPRLPRPRPRPSLRPRP | -0.305
44 | RRIRCRPPRLPRPRPRPSLSPRP | -0.429
45 | RRIRCRPPRLPRPRPRPSLTPRP | -0.538
46 | RRIRCRPPRLPRPRPRPSMAPRP | -0.224
47 | RRIRCRPPRLPRPRPRPSNVPRP | -0.608
48 | RRIRCRPPRLPRPRPRPSPVPRP | 0.00196
49 | RRIRCRPPRLPRPRPRPSPWPRP | 0.0328
50 | RRIRCRPPRLPRPRPRPSPYPRP | -0.302

Row | Sequence | shrunken log2 fold change
51 | RRIRCRPPRLPRPRPRPSTLPRP | -0.686
52 | RRIRCRPPRLPRPRPRPSVDPRP | -0.139
53 | RRIRCRPPRLPRPRPRPSVVPRP | -0.261
54 | RRIRCRPPRLPRPRPRPSWQPRP | -0.0872
55 | RRIRCRPPRLPRPRPRPSYKPRP | -0.572
56 | RRIRCRPPRLPRPRPRPTAHPRP | 0.181
57 | RRIRCRPPRLPRPRPRPTDRPRP | 0.15
58 | RRIRCRPPRLPRPRPRPTEWPRP | 0.063
59 | RRIRCRPPRLPRPRPRPTFFPRP | 0.114
60 | RRIRCRPPRLPRPRPRPTGIPRP | 0.287
61 | RRIRCRPPRLPRPRPRPTGNPRP | 0.048
62 | RRIRCRPPRLPRPRPRPTGTPRP | 0.0453
63 | RRIRCRPPRLPRPRPRPTHPPRP | 0.164
64 | RRIRCRPPRLPRPRPRPTIGPRP | -0.0746
65 | RRIRCRPPRLPRPRPRPTIRPRP | -0.312
66 | RRIRCRPPRLPRPRPRPTLNPRP | -0.232
67 | RRIRCRPPRLPRPRPRPTLPPRP | 0.356
68 | RRIRCRPPRLPRPRPRPTMGPRP | -0.136
69 | RRIRCRPPRLPRPRPRPTNFPRP | -0.124
70 | RRIRCRPPRLPRPRPRPTNMPRP | -0.47
71 | RRIRCRPPRLPRPRPRPTNWPRP | -0.0072
72 | RRIRCRPPRLPRPRPRPTPEPRP | 0.284
73 | RRIRCRPPRLPRPRPRPTPWPRP | 0.49
74 | RRIRCRPPRLPRPRPRPTQDPRP | 0.805
75 | RRIRCRPPRLPRPRPRPTRAPRP | 0.632

Row | Sequence | shrunken log2 fold change
76 | RRIRCRPPRLPRPRPRPTRKPRP | -0.0442
77 | RRIRCRPPRLPRPRPRPTSRPRP | -0.0338
78 | RRIRCRPPRLPRPRPRPTTNPRP | 0.0115
79 | RRIRCRPPRLPRPRPRPTYGPRP | -0.0844
80 | RRIRCRPPRLPRPRPRPVAMPRP | -0.125
81 | RRIRCRPPRLPRPRPRPVATPRP | 0.443
82 | RRIRCRPPRLPRPRPRPVCNPRP | 0.0532
83 | RRIRCRPPRLPRPRPRPVEYPRP | -0.0499
84 | RRIRCRPPRLPRPRPRPVFKPRP | -0.355
85 | RRIRCRPPRLPRPRPRPVKYPRP | -0.596
86 | RRIRCRPPRLPRPRPRPVLQPRP | 1.24
87 | RRIRCRPPRLPRPRPRPVMSPRP | -0.136
88 | RRIRCRPPRLPRPRPRPVPTPRP | 0.116
89 | RRIRCRPPRLPRPRPRPVPWPRP | -0.139
90 | RRIRCRPPRLPRPRPRPVQDPRP | 0.0523
91 | RRIRCRPPRLPRPRPRPVQWPRP | 0.116
92 | RRIRCRPPRLPRPRPRPVRQPRP | 0.126
93 | RRIRCRPPRLPRPRPRPVRTPRP | 0.39
94 | RRIRCRPPRLPRPRPRPVSEPRP | 0.00852
95 | RRIRCRPPRLPRPRPRPVTKPRP | 0.217
96 | RRIRCRPPRLPRPRPRPVVAPRP | 0.319
97 | RRIRCRPPRLPRPRPRPVVGPRP | -0.0604
98 | RRIRCRPPRLPRPRPRPVWAPRP | 0.351
99 | RRIRCRPPRLPRPRPRPVWEPRP | 0.176
100 | RRIRCRPPRLPRPRPRPVYCPRP | -0.755

Row | Sequence | shrunken log2 fold change
101 | RRIRCRPPRLPRPRPRPWFWPRP | 0.189
102 | RRIRCRPPRLPRPRPRPWGHPRP | -0.092
103 | RRIRCRPPRLPRPRPRPWHMPRP | -0.119
104 | RRIRCRPPRLPRPRPRPWIVPRP | -0.0435
105 | RRIRCRPPRLPRPRPRPWKCPRP | -0.0193
106 | RRIRCRPPRLPRPRPRPWKGPRP | -0.0267
107 | RRIRCRPPRLPRPRPRPWKIPRP | -0.268
108 | RRIRCRPPRLPRPRPRPWKLPRP | -0.269
109 | RRIRCRPPRLPRPRPRPWKVPRP | 0.101
110 | RRIRCRPPRLPRPRPRPWLDPRP | -0.273
111 | RRIRCRPPRLPRPRPRPWMAPRP | -0.333
112 | RRIRCRPPRLPRPRPRPWMFPRP | -0.453
113 | RRIRCRPPRLPRPRPRPWMTPRP | -0.188
114 | RRIRCRPPRLPRPRPRPWNEPRP | -0.705
115 | RRIRCRPPRLPRPRPRPWNFPRP | -0.182
116 | RRIRCRPPRLPRPRPRPWQYPRP | 0.0686
117 | RRIRCRPPRLPRPRPRPWRNPRP | -0.157
118 | RRIRCRPPRLPRPRPRPWRQPRP | -0.167
119 | RRIRCRPPRLPRPRPRPWSFPRP | -0.0435
120 | RRIRCRPPRLPRPRPRPWVIPRP | -0.11
121 | RRIRCRPPRLPRPRPRPWWAPRP | 1.27
122 | RRIRCRPPRLPRPRPRPWWNPRP | -0.752
123 | RRIRCRPPRLPRPRPRPWWQPRP | 0.0101
124 | RRIRCRPPRLPRPRPRPYAGPRP | -0.513
125 | RRIRCRPPRLPRPRPRPYAIPRP | -0.803

Row | Sequence | shrunken log2 fold change
126 | RRIRCRPPRLPRPRPRPYAKPRP | -0.671
127 | RRIRCRPPRLPRPRPRPYAVPRP | -0.349
128 | RRIRCRPPRLPRPRPRPYCNPRP | -1.19
129 | RRIRCRPPRLPRPRPRPYCWPRP | -0.331
130 | RRIRCRPPRLPRPRPRPYCYPRP | -0.669
131 | RRIRCRPPRLPRPRPRPYDWPRP | -0.204
132 | RRIRCRPPRLPRPRPRPYFIPRP | -1.18
133 | RRIRCRPPRLPRPRPRPYFMPRP | -0.91
134 | RRIRCRPPRLPRPRPRPYFPPRP | -0.513
135 | RRIRCRPPRLPRPRPRPYGDPRP | -0.217
136 | RRIRCRPPRLPRPRPRPYIAPRP | -0.762
137 | RRIRCRPPRLPRPRPRPYIGPRP | -1.24
138 | RRIRCRPPRLPRPRPRPYIRPRP | -1.22
139 | RRIRCRPPRLPRPRPRPYKAPRP | -0.279
140 | RRIRCRPPRLPRPRPRPYKKPRP | 0.104
141 | RRIRCRPPRLPRPRPRPYKMPRP | -1.66
142 | RRIRCRPPRLPRPRPRPYKYPRP | -0.551
143 | RRIRCRPPRLPRPRPRPYLVPRP | -0.584
144 | RRIRCRPPRLPRPRPRPYMMPRP | -0.293
145 | RRIRCRPPRLPRPRPRPYMWPRP | -0.913
146 | RRIRCRPPRLPRPRPRPYNGPRP | -0.216
147 | RRIRCRPPRLPRPRPRPYPIPRP | -0.198
148 | RRIRCRPPRLPRPRPRPYQFPRP | -0.0218
149 | RRIRCRPPRLPRPRPRPYRCPRP | -0.282
150 | RRIRCRPPRLPRPRPRPYRTPRP | -0.132
